Measurements reported in a protein production outcome set (Wang et al. 2014).

Assay: label from the status in PepcDB records

Sequence | protein production
MSVVDPSLIERIIRDDVRAMGAYHVPDSHGLVKLDAMENPYRLPPALRSELAARLGEVALNRYPVPSSEALRAKLKEVMQVPAGMEVLLGNGSDEIISMLALAAARPGAKVMAPVPGFVMYAMSAQFAGLEFVGVPLRADFTLDRGAMLAAMAEHQPAIVYLAYPNNPTGNLFDAADMEAIVRAAQGSVCRSLVVVDEAYQPFAQESWMSRLTDFGNLLVMRTVSKLGLAGIRLGYVAGDPQWLEQLDKVRPPYNVNVLTEATALFALEHVAVLDEQAAQLRAERSRVAEGMAAHGGVTVFPSAANFLLARVPDAAQTFDRLLARKVLIKNVSKMHPLLANCLRVTVSTPEENAQFLEAFAASLQD | not failed
MDPLVSFFDGMAQASWLRPVHDRLKKGTGSWANRAVLDVGCGTGRLLARGVHEAAHLAGVDLSKQMVLATEERLHEHKQCGRLTVVQGDAYDLPFADESFDVCLSTCVMFLLPEPERGMKEMIRVLNGAGVIGMLNPTNKMNHAAAKAYCKKSGITGFEEKTLLQWSNVSTRRHRYTAEQLTHFFKQHGAWVVTHELVLDGLAVVTVASWNKLEHHHHHH | failed
MPEVEDMPSIALHSVMASPNAEYVRWKAHGDFISQLNYYDSMKAVISSSNHEPTALVIGFTVGATDVKEKLNEIRNVGKNVMMGSSSASLALAKRQAECNRTVFRVHKGVKAFSFCRKKNLLATGGLDRIVRVWNPYLPGKPTGVLRGHMAPVMYVHVASEENKVFSVSADNTVKIWDLETHSCCCTVSSKASGIKGELTACLYLPGPRALCVATGTLALFHLKAGSVPEPHLLRSHQEPVVCCRYNPAFRQVVSCCEASVVKVWDLETGRWVSEFIGNAGITCLAFDSSGRRLVTGGRDGDLKIWSYNNGHCLHTLQHDENQNEVCDCTYMEVNRNGCVIAVGWDRRINVYFDIPRDFHHFRKPQPHWQDDLNHGHKEDILCVAQCPPFLLATSSYDGEIIVWNVISGHMYCKLNTPSPMDPREGPDRSVSRLTFLKTRLTKLDSTAASLISNGPGGSVSFWKLFSGSGLIANFTPAREKAQVSGIVVTSGDTVAYLADQHGFIYVYDIQEYGLWGAELQPPNSTHSWEVESQKHSFLKTFDVSEGAGKGLSSSLDCTVRLCSKDGAYIGTFGQNRPWDVYTPDSWGHPRVPLEILTDPQSMPTHLVLETDVPAGCSGGRQEQGHMTEEKVLFETEKTHNPPSPEGPVVEVEVKADKSQWSAFSHDRLLLSSKTLMQDKRLLSARRKPCWKVPELKWPSIYQALQCHELDFVSALREKPDLSVTGFDLLPDYRFPRGPTEYRQCSAELLFRSLPHAAHISSVPQAPAKLWGHKQN | failed
MKKPFFGFMFIALFSASLFCNPADLYQKGAEYQANEDWYGAIEMYQSALKENPSYNLVYQGLAECFYALDEYDQALSFVESARKYKKDDPDLQNLHGFILVGLGKIDAAKTLFNGVLKKYPNNPEARFGLAEIEVSQGKLYLASEMYKQNLQRQGENRKDLLSLALVSYEAGNVKQAEDYINRALKYHGDNPQVHYFAAYLHSLDGKLEEAEGRIYSALKLKEDYDEAYALLASVLYAQKRYEEVIKISDMRISKKRDRADAWYLKTLSLRQLARYGEAINAAKVGLSLDADDEIMRCLLEELAIENLNFEDSFRMELSKYHAQKALGFFRRNMTEQALYEYRRTLKIYPYDVESREAYAGILLRLGYPERYLEQMLFIQSIVKSNTKVNDAVEAYEKHLLSSIQSKWRIDPLYLDKAHISIGLFYTMESSNVLHPEAERITQILTSDIFSYNPRIKITSYSDKPVTYREASKKSRTANEDYFGIIRLKENRRDIQIILELYVSRTGSPAKTFTVYRSGNDRFSNGIRRLSSMLNEAMPIVGKLINRYQNEAVIDIGKHDSDFKDLKIAVIRKDRLVIEKEGLGMVFDPSDLLGYFEPSKSEENLSEGILKRNGYYDRMNAGDSIILVSENAKEKAAEDYTNSYQKNSLLLLLLRRIR | failed
MAEPVQEELSVLAAIFCRPHEWEVLSRSETDGTVFRIHTKAEGFMDADIPLELVFHLPVNYPSCLPGISINSEQLTRAQCVTVKEKLLEQAESLLSEPMVHELVLWIQQNLRHILSQPETG | not failed
MCSLEKRDRLFILKLTGDGEHRLNPTLLDSLRSTINQIRSDPSFSQSVLITTSDGKFFSNGYDLALAESNPSLSVVMDAKLRSLVADLISLPMPTIAAVTGHASAAGCILAMSHDYVLMRRDRGFLYMSELDIELIVPAWFMAVIRGKIGSPAARRDVMLTAAKVTADVGVKMGIVDSAYGSAAETVEAAIKLGEEIVQRGGDGHVYGKMRESLLREVLIHTIGEYESGSSVVRSTGSKL | failed
MTWKPNVTVAAVIEQDDKYLLVEEIPRGTAIKLNQPAGHLEPGESIIQACSREVLEETGHSFLPEVLTGIYHWTCASNGTTYLRFTFSGQVVSFDPDRKLDTGIVRAAWFSIDEIRAKQAMHRTPLVMQCIEDYHAGKRYPLDILQYYD | not failed
MCRYCLIVAARVGAVDDARFDMTAPDLIPIETLFGMPEFSRAQISPDGRLVAYLAPWRGRLNIWVRPVGQGTARRLTGDDTRNIDGFSWTRDTRYLLFIQDTQGDENWHLHRVEVDGAEAVGGKARTVDLTPYSGVRVMGLELSAAFPSKAFVQMNLRTPDLIDLYEVDIESAETRVAALNPGRFVRWIVTPNGPMHAFIINDVGDHELARYENGVFTTLAKLSGRDQPIGPMPLMVAADGESVLVGCNAGSDHTYLAAIDLATGKCRVIDSQPDCSLDTPRPEADPRFPSSLITNPVTGELLAVRYLGKRQQIRPLNLRFAAVLNSLQRLSDGEIGYISCDAGGRQWVAEFWDDRHPGTTWFYEHESGEAHVLGERFSALSAERLVSVRPIDVISRDGLTLPCHVTLPVGFDAKDEPRALPTVLLVHGGPWYRDACVYDPEVQFLANRGYAVLQVNFRGSTGYGKAFMQAAIGEFSGRMHDDLIDGLDWLIGQGIADPARVAIYGCSYGGYAALVGASFTPERFTATISYSGISDLRMLVNGVVPFVQPTLINTYLSYMGDPDIETQNRDMLARSPVSRLDCISKPLLVVHGANDVRVAKAQADMVVERVRANGVEVDYLLNEREGHWFINEDSNIELYRKIERFLARHLRGE | failed
MDDWEDEKIAPLPAKVELKSNWDDEDVDENEIKDSWEDDDDEPAQPPVINPAPEKAPKKAAPKTVEKKGKAVEVPKEAPKEKPLDPIAEKLRQQRLVEEADYRATAELFGVKDDDKNLDMFIPKSESDFLEYAEMISHRIKPYEKSYHYIALLKTIMRLSLTNMKAADVKDVASSITTIANEKLKAEKEAAAGKKKGGKKKQLIVDKANDDLVAGPYDAMDDFDFM | failed
MMRQVRRGATPPPGPGPSAPPYGAGVPQQPSYTDGQGHGGDGYDSGYNTGQVYGGGGGGQGPGRQVRDRPAPDWRRRIKWTAITVVTVLVVTTVGTYFWADSKLNRDVDLSKVIDRPAAGEGTNYLIVGSDSREGMSKDQMKDLHTGYAEGKRTDSMMILHTGDNGSTLISLPRDSDVEIPSFVGSESGKKYPGTGRHTKLNAAYAEDGPELLVRTVEHNTGLRLDHYVEIGFGGFANIVDAVGGVEIDIPQDIKDKKSGADLKKGKQTLDGQEALAFVRTRYALAGSDLDRTKNQQKFLSALASQVATPSTVLNPFRLYPTMGAGLDSLVVDKDMGLFDLASMFWAMKSVSGGEGTSMNMPISGSVGGNLKWDDAKVKKLVEELKNDEKVTVSGNN | failed
MGTKRIGILTSGGDCPGLNAVIRAVVKASALKGWEVYGIPYGTDGFVEVAHGKYQAEDLLLTKHGYALPGMLKGLDVLQFLSGSVLGSLSKGHPEQPAIAEAILKGYAILDLEALIVIGGDGSLDIIYDLAQKGNWHIIAIPKTIDNDVPFTDLAVGFSTAVDIVTQALYDLTFTAASHERIIIVQVMGRDAGHLTLHAGIAGGADIILIPEITPCLTSEIIRNCCYQLMNLRKSGRHFALIVISEGVHDQNNKKNKHIADYLAEEISETSQHLCDIKDPAFCDLISLDIRATTLGHLQRSGTPLSFDRLLATVFGIRAVELIEQEIYDQVVIWRSGKVEHADLKPIISIIKECHQENRCPFPVDRDGFMVKTAKSLGIYLGED | failed
MNSYPLISVIMSVYKEEREWLVSSIQSILDQTVSDFEFIIILDFPNSELLKTLKDFEKKDSRIIIYQNEKNVGLVESLNTALSFSRGKYIARMDADDISHKNRFEKQLKYITLNNLDLVGGNVNIFHSNKGIYNTTDKVQSDYFLCKLLKIGTIGIVHPTFFSKRNVYDTIGGYYHAECAEDLELLMRANLNGFKIGNIPDVILDCRYSEKSITKENAYFMFCTVKYLKSLYRSSLKSGDYKFNSNYIELYLYDENNKLAFSEKQNLMSEARHSFNEKKYISFLINLIKSILISRTVFFSIKVNVMSFLFRKVEVKIPKVLLACIKIKLQLEHHHHHH | not failed
MNEFAQSPRSCVLGCSGLGYSVRGTPLLSDVDLSIATGETLAVVGPNGSGKSTLLKLLAGIQKPGSGAVRLGEQALAAMSRRDVARLLAVVEQQAETSDAVTVLDAVELGRTPWLSALEPWSANDDAIVRQALQDVDMLHMQKRAWHTLSGGERQRVHIARALAQRPQILLLDEPTNHLDIQHQLTILGLVRALPVTTVIALHDLNQALDCDRVAVMEKGRLVALGTPVEVLTPKRLLSTFGVVAHWLTDPFDGAKILRLRSR | failed
MGHHHHHHSHGSYANEISSSIIINRPAERLFDLWRKPETLPILMGHFASIEILNHTDSNWRINTPIGSLIEWQARIIDEKPGEYIHWRSLEGARVPNEGRLSFQPAASEAGTAVTLTIRYNPPGGLIGKKIGQMFDMFSRDMLTKTLYRFKKLAEDER | not failed
MVYELVYELVYAKIYTNKRIPIREDPCMARTTRPLTHTEVQKAKATDKDLTLHDGDGLFLLVKTTGKKIWRFRYQVPGTSKRTMISLGAYPALSLADAREVRSEKLAILVKGIDPQARAGEEAEKLQIAQESIFVNVARKWFELKQSHVSADHAKDIWRSIEKDILPSIENVPIQELKARTLIQVLEPIKARGALETVRRLVQRINEIMIYAVNVGLIEANPASGIGNAFERPKKQHMPIIRPEELPKLMRTISMSNLSIPTRCLLEWQLLTLIRPAEASATAWSEIDIENKQWCIPAERMKAKRDHIVPLSEQALELLEIMRPISGNRQYVFPSRNDPRKPMNSQTANAALKRIGYSGKLVAHGLRSIASTAMNEAGFNADVIEAALAHSDKNEVRRAYNRSTYLTQRVELLGWWGEFVNRTQVI | failed
MGNHFSKLGFVLAALGSAIGLGHIWRFPYMTGVSGGGAFVLLFLFLSLSVGAAMFIAEMLLGQSTQKNVTEAFKELDINPKKRWKYAGLLLVSGPLILTFYGTILGWVLYYLVSVSFNLPNNIQESEQIFTQTLQSIGLQSIGLFSVLLITGWIVSRGIKEGIEKLNLVLMPLLFATFFGLLFYAMSMDSFSKAFHFMFDFKPKDLTSQVFTYSLGQVFFSLSIGLGINITYAAVTDKTQNLLKSTIWVVLSGILISLVAGLMIFTFVFEYGANVSQGTGLIFTSLPVVFGQMGAIGILVSILFLLALAFAGITSTVALLEPSVMYLTERYQYSRFKVTWGLVALIFVVGVVLIFSLHKDYKDYLTFFEKSLFDWLDFASSTIIMPLGGMATFIFMGWVLKKEKLRLLSVHFLGPKLFATWYFLLKYITPLIVFSIWLSKIY | failed
MAGAAHRLMEARMRRYDNKFARISDIDINQPESWRGRIFLTFDIDWAADFVLQDTIDLIEGAGVCATWFATHSTPLLENIRRNPLFELGVHPNFNPLLAGAHAEGVQEILDRTLELAPGCVSVRSHSLVQATSILNMFGERRLRYDCNILVPWDAGIVLQPWRHWTGDMVRVPYLWEDDVACLYDWEFDSTFDYWYQPDGINVLDFHPIHVYMNTESLRRYEDSREVHRNPVDLIRWRNTSAGSRTFLQSLLARNI | not failed
MNKEMTLLPPPELVQYVGGDFKKVGKEFLKHFIQIGALKSNEKVLDVGCGVGRMAVPLMNYLNDDGAYYGFDLFKDGITWCQNNISTMRNNFHFEHVDIYNQFYNPEGKEDASQYRFPYEDGTFDFIFLTSVFTHLLPKELEHYVSEIVRVLKKDGRCFITFFLINPESSYYLNAGQSTLGFYHRIENCYVVNKDIPNFAVAYPETDICNLLNKYGLEIINKPHYGLWCGRHEYTSYQDIVLTKKSLEHHHHHH | failed
